Data as given in paper PMC10397247.
Read-outs that look alike come from different tables or passages of the source. Values belong to the binder of their own block, whether it stands above or below them.

What was measured:
Test in all cases: two-hybrid library CCNG1;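 note: natural log of median RNA to DNA barcode read ratio; higher means stronger binding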
P7mS = molecular target: T1, P7mS
T1 chain: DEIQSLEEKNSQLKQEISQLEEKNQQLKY

P9mS = molecular target: T2, P9mS
T2 chain: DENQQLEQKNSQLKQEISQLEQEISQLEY

P8mS = molecular target: T3, P8mS
T3 chain: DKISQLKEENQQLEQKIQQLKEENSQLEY

4H346-bA = molecular target: T4, 4H346-bA
T4 chain: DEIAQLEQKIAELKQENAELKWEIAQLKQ

4H607-bA = molecular target: T5, 4H607-bA
T5 chain: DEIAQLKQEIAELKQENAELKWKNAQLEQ

4H918-bA = molecular target: T6, 4H918-bA
T6 chain: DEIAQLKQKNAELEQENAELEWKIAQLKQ

4H454-bA = molecular target: T7, 4H454-bA
T7 chain: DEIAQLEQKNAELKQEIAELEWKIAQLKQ

4H4001-bA = molecular target: T8, 4H4001-bA
T8 chain: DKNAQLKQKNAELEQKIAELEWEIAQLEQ

4H4073-bA = molecular target: T9, 4H4073-bA
T9 chain: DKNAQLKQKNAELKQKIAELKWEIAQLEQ

4H457-bA = molecular target: T10, 4H457-bA
T10 chain: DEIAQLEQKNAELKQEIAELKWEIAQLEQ

4H953-bA = molecular target: T11, 4H953-bA
T11 chain: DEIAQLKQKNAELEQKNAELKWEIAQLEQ

4H575-bA = molecular target: T12, 4H575-bA
T12 chain: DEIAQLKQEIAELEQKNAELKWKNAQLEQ

4H855-bA = molecular target: T13, 4H855-bA
T13 chain: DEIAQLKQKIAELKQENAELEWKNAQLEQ

O15-bN = molecular target: T14, O15-bN
T14 chain: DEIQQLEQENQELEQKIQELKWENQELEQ

4H3926-bA = molecular target: T15, 4H3926-bA
T15 chain: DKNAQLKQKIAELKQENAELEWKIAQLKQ

4H754-bA = molecular target: T16, 4H754-bA
T16 chain: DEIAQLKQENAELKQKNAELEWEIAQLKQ

P7bH1 = molecular target: T17, P7bH1
T17 chain: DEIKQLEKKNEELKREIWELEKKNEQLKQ

4H967-bA = molecular target: T18, 4H967-bA
T18 chain: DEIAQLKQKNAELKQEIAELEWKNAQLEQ

4H3855-bA = molecular target: T19, 4H3855-bA
T19 chain: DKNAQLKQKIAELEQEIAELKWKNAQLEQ

4H780-bA = molecular target: T20, 4H780-bA
T20 chain: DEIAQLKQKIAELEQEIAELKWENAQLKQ

4H3427-bA = molecular target: T21, 4H3427-bA
T21 chain: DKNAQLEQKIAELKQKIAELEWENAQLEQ

4H683-bA = molecular target: T22, 4H683-bA
T22 chain: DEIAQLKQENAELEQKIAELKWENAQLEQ

4H883-bA = molecular target: T23, 4H883-bA
T23 chain: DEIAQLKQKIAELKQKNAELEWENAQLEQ

4H568-bA = molecular target: T24, 4H568-bA
T24 chain: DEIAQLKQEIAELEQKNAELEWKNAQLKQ

4H717-bA = molecular target: T25, 4H717-bA
T25 chain: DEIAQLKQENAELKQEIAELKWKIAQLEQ

4H72-bA = molecular target: T26, 4H72-bA
T26 chain: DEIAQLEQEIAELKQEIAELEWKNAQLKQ

4H908-bA = molecular target: T27, 4H908-bA
T27 chain: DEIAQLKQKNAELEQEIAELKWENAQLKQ

4H3782-bA = molecular target: T28, 4H3782-bA
T28 chain: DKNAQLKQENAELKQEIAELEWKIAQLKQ

4H968-bA = molecular target: T29, 4H968-bA
T29 chain: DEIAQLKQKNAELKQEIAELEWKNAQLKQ

4H797-bA = molecular target: T30, 4H797-bA
T30 chain: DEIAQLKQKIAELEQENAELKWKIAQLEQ

4H687-bA = molecular target: T31, 4H687-bA
T31 chain: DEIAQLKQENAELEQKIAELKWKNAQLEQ

4H338-bA = molecular target: T32, 4H338-bA
T32 chain: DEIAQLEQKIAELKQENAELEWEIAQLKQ

O15-bH = molecular target: T33, O15-bH
T33 chain: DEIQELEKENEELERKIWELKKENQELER

O8-bN = molecular target: T34, O8-bN
T34 chain: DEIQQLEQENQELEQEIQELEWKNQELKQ

O5-bN = molecular target: T35, O5-bN
T35 chain: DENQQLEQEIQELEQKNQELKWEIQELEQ

O16-bN = molecular target: T36, O16-bN
T36 chain: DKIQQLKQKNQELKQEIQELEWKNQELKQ

O9-bN = molecular target: T37, O9-bN
T37 chain: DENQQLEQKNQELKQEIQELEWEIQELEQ

O6-bN = molecular target: T38, O6-bN
T38 chain: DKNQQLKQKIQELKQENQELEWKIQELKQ

O7-bN = molecular target: T39, O7-bN
T39 chain: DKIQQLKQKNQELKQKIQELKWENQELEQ

O3-bN = molecular target: T40, O3-bN
T40 chain: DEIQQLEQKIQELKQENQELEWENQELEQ

O4-bN = molecular target: T41, O4-bN
T41 chain: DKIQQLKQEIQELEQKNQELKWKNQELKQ

O2-bN = molecular target: T42, O2-bN
T42 chain: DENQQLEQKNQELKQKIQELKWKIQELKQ

4H2503-bA = molecular target: T43, 4H2503-bA
T43 chain: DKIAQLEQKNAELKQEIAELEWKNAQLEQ

4H2915-bA = molecular target: T44, 4H2915-bA
T44 chain: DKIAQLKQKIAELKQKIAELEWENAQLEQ

4H3277-bA = molecular target: T45, 4H3277-bA
T45 chain: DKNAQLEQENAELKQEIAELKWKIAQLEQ

4H2717-bA = molecular target: T46, 4H2717-bA
T46 chain: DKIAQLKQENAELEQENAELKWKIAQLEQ

4H492-bA = molecular target: T47, 4H492-bA
T47 chain: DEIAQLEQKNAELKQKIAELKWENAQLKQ

4H40-bA = molecular target: T48, 4H40-bA
T48 chain: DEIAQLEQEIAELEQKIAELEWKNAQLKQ

4H3057-bA = molecular target: T49, 4H3057-bA
T49 chain: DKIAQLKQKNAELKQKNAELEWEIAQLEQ

4H477-bA = molecular target: T50, 4H477-bA
T50 chain: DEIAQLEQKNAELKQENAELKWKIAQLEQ

4H2839-bA = molecular target: T51, 4H2839-bA
T51 chain: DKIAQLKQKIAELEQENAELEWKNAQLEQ

4H319-bA = molecular target: T52, 4H319-bA
T52 chain: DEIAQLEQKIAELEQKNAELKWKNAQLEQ

4H2692-bA = molecular target: T53, 4H2692-bA
T53 chain: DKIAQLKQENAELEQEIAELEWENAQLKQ

4H741-bA = molecular target: T54, 4H741-bA
T54 chain: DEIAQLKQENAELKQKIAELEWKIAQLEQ

4H2588-bA = molecular target: T55, 4H2588-bA
T55 chain: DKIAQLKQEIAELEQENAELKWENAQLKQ

4H348-bA = molecular target: T56, 4H348-bA
T56 chain: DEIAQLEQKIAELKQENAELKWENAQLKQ

4H3162-bH = molecular target: T57, 4H3162-bH
T57 chain: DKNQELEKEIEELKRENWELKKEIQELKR

interaction score (O8-bN): -1.62 | interaction score (O15-bN): -0.195 | interaction score (O5-bN): -0.822 | interaction score (O16-bN): 1.92 | interaction score (O9-bN): -0.491 | interaction score (O6-bN): -0.314 | interaction score (O7-bN): 1.29 | interaction score (O3-bN): -0.189 | interaction score (O4-bN): 0.275 | interaction score (O2-bN): -1.5
B4: O15-bN (peptide)
chain: DEIQQLEQENQELEQKIQELKWENQELEQ

interaction score (O8-bN): -1.07 | interaction score (O15-bN): -0.801 | interaction score (O5-bN): -2.42 | interaction score (O16-bN): -1.23 | interaction score (O9-bN): -1.61 | interaction score (O6-bN): -0.733 | interaction score (O7-bN): -1.39 | interaction score (O3-bN): -0.827 | interaction score (O4-bN): -2.32 | interaction score (O2-bN): -1.79
B5: O13-bN (peptide)
chain: DKNQQLKQKIQELKQKNQELKWEIQELEQ

interaction score (O8-bN): -1.68 | interaction score (O15-bN): -0.117 | interaction score (O5-bN): -0.308 | interaction score (O16-bN): 1.69 | interaction score (O9-bN): -0.149 | interaction score (O6-bN): 0.642 | interaction score (O7-bN): 1.78 | interaction score (O3-bN): 0.477 | interaction score (O4-bN): -1.01 | interaction score (O2-bN): 0.0465
B6: O14-bN (peptide)
chain: DENQQLEQEIQELEQENQELEWKIQELKQ

Continued, binder first:

B1: P7mS (peptide)
chain: DEIQSLEEKNSQLKQEISQLEEKNQQLKY
interaction score (P7mS): -0.531 | interaction score (P9mS): 0.076 | interaction score (P8mS): 1.28

B2: 4H3427-bA (peptide)
chain: DKNAQLEQKIAELKQKIAELEWENAQLEQ
interaction score (4H346-bA): -1.15 | interaction score (4H607-bA): -0.868 | interaction score (4H918-bA): -0.926 | interaction score (4H454-bA): -0.617 | interaction score (4H4001-bA): -0.314 | interaction score (4H4073-bA): 0.792 | interaction score (4H457-bA): -1.11 | interaction score (4H953-bA): -1.25 | interaction score (4H575-bA): 0.0418 | interaction score (4H855-bA): -1.16 | interaction score (O15-bN): -0.0232 | interaction score (4H3926-bA): -0.817 | interaction score (4H754-bA; mean of both orientations): -0.767 | interaction score (P7bH1): -0.632 | interaction score (4H967-bA): -1.02 | interaction score (4H3855-bA): -0.947 | interaction score (4H780-bA): -1.09 | interaction score (4H3427-bA): 0.0593 | interaction score (4H683-bA): -0.996 | interaction score (4H883-bA): -0.625 | interaction score (4H568-bA): 0.738 | interaction score (4H717-bA): -1.4 | interaction score (4H72-bA): 0.449 | interaction score (4H908-bA): -0.823 | interaction score (4H3782-bA): -0.499 | interaction score (4H968-bA): -0.904 | interaction score (4H797-bA): -0.827 | interaction score (4H687-bA): -1.79

B3: 4H338-bA (peptide)
chain: DEIAQLEQKIAELKQENAELEWEIAQLKQ
interaction score (4H607-bA): -0.707 | interaction score (4H918-bA): -1.39 | interaction score (4H454-bA): 2.01 | interaction score (4H4001-bA): 0.217 | interaction score (4H338-bA): 0.363 | interaction score (4H953-bA): -0.0976 | interaction score (O15-bH): 0.0935 | interaction score (4H754-bA): -0.95 | interaction score (4H967-bA): 0.424 | interaction score (4H3855-bA): -0.445 | interaction score (4H3427-bA): 0.0707 | interaction score (4H883-bA): -0.973 | interaction score (4H568-bA): 0.415 | interaction score (4H717-bA): -0.573 | interaction score (4H72-bA): -0.139 | interaction score (4H908-bA): -0.695 | interaction score (4H3782-bA): -0.133 | interaction score (4H797-bA): -0.317 | interaction score (4H687-bA): -1.18

B7: 4H2503-bA (peptide)
chain: DKIAQLEQKNAELKQEIAELEWKNAQLEQ
interaction score (4H2503-bA): -0.591 | interaction score (4H2915-bA): -0.804 | interaction score (4H3277-bA): -0.659 | interaction score (4H2717-bA): -0.684 | interaction score (4H492-bA): -0.351 | interaction score (4H40-bA): -0.475 | interaction score (4H3057-bA): -0.42 | interaction score (4H477-bA): -0.816 | interaction score (4H2839-bA): -0.791 | interaction score (4H319-bA): -1.63 | interaction score (4H2692-bA): 0.466 | interaction score (4H741-bA): -0.407 | interaction score (4H2588-bA): -0.447 | interaction score (4H348-bA): -1.13 | interaction score (4H3162-bH): -2.22 | interaction score (4H687-bA): 1.12
